B1: RANKL13hum5 (VHH)
VHH: EVQLVESGGGLVQPGGSLRLSCAASGFTFSSYPMGWFRQAPGKGREFVSSITGSGGSTYYADSVKGRFTISRDNAKNTLYLQMNSLRPEDTAVYYCAAYIRPDTYLSRDYRKYDYWGQGTLVTVSS
B2: RANKL13hum5_D62E (VHH)
VHH: EVQLVESGGGLVQPGGSLRLSCAASGFTFSSYPMGWFRQAPGKGREFVSSITGSGGSTYYAESVKGRFTISRDNAKNTLYLQMNSLRPEDTAVYYCAAYIRPDTYLSRDYRKYDYWGQGTLVTVSS
B3: RANKL13 (VHH)
VHH: EVQLVESGGGLVQAGGSLRLSCAASGRTFRSYPMGWFRQAPGKEREFVASITGSGGSTYYADSVKGRFTISRDNAKNTVYLQMNSLRPEDTAVYSCAAYIRPDTYLSRDYRKYDYWGQGTQVTVSS

The experiment has as its target T1, human RANK-L (human, UniProt O14788 140-317).
T1 chain: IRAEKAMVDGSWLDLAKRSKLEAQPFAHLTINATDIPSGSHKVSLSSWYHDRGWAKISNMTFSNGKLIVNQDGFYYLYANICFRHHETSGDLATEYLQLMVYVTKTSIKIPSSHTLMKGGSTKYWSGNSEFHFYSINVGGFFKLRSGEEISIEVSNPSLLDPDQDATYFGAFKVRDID
As to the kind of experiment: AlphaScreen competition. (Alpha assays give light when donor and acceptor beads are brought close together.)
For B1, the IC50 came out at 0.167 nM. In the case of B2, the IC50 worked out at 0.156 nM. This IC50 and that of the molecule before are within 1.5-fold of each other. The molecule B3 gave an IC50 of 0.228 nM. This IC50 and that of the molecule before are within 1.5-fold of each other.

The term IC50 denotes the concentration that inhibits the measured activity by half. The low end stands for greater potency, the high end for weaker potency.

For the origin of these results see patent publication US20110002929A1 (published 2011).
